Laboratory results from IntAct's records for PubMed 20643958.

B1: DNA primase large subunit (Homo sapiens), P49643-1 (parent)
chain: MEFSGRKWRKLRLAGDQRNASYPHCLQFYLQPPSENISLIEFENLAIDRVKLLKSVENLGVSYVKGTEQYQSKLESELRKLKFSYRENLEDEYEPRRRDHISHFILRLAYCQSEELRRWFIQQEMDLLRFRFSILPKDKIQDFLKDSQLQFEAISDEEKTLREQEIVASSPSLSGLKLGFESIYKIPFADALDLFRGRKVYLEDGFAYVPLKDIVAIILNEFRAKLSKALALTARSLPAVQSDERLQPLLNHLSHSYTGQDYSTQGNVGKISLDQIDLLSTKSFPPCMRQLHKALRENHHLRHGGRMQYGLFLKGIGLTLEQALQFWKQEFIKGKMDPDKFDKGYSYNIRHSFGKEGKRTDYTPFSCLKIILSNPPSQGDYHGCPFRHSDPELLKQKLQSYKISPGGISQILDLVKGTHYQVACQKYFEMIHNVDDCGFSLNHPNQFFCESQRILNGGKDIKKEPIQPETPQPKPSVQKTKDASSALASLNSSLEMDMEGLEDYFSEDS

Variants of: B1
Details: with rfa2_human RPA2, P15927
Sequence of rfa2_human RPA2, P15927 (P15927 whole entry): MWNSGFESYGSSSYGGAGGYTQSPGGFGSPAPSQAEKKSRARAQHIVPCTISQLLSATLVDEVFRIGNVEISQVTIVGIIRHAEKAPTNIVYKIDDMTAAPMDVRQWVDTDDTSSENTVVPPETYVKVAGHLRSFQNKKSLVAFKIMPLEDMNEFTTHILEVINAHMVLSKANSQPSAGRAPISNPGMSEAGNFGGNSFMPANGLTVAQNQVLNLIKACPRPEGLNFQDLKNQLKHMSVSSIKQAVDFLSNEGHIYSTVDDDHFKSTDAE

**Q.** Which “effect of a mutation on the interaction” value does the source give for MEFSGRKWRKLRLAGDQRNASYPHCLQFYLQPPSENISLIEFENLAIDRVKLLKSVENLGVSYVKGTEQYQSKLESELRKLKFSYRENLEDEYEPRRRDHISHFILRLAYCQSEELRRWFIQQEMDLLRFRFSILPKDKIQDFLKDSQLQFEAISDEEKTLREQEIVASSPSLSGLKLGFESIYKIPFADALDLFRGRKVYLEDGFAYVPLKDIVAIILNEFRAKLSKALALTARSLPAVQSDERLQPLLNHLSHSYTGQDYSTQGNVGKISLDQIDLLSTKSFPPCMRQLHKALEENHHLRHGGRMQYGLFLKGIGLTLEQALQFWKQEFIKGKMDPDKFDKGYSYNIRHSFGKEGKRTDYTPFSCLKIILSNPPSQGDYHGCPFRHSDPELLKQKLQSYKISPGGISQILDLVKGTHYQVACQKYFEMIHNVDDCGFSLNHPNQFFCESQRILNGGKDIKKEPIQPETPQPKPSVQKTKDASSALASLNSSLEMDMEGLEDYFSEDS [R296E] here?
**A.** decreasing interaction

**Q.** MEFSGRKWRKLRLAGDQRNASYPHCLQFYLQPPSENISLIEFENLAIDRVKLLKSVENLGVSYVKGTEQYQSKLESELRKLKFSYRENLEDEYEPRRRDHISHFILRLAYCQSEELRRWFIQQEMDLLRFRFSILPKDKIQDFLKDSQLQFEAISDEEKTLREQEIVASSPSLSGLKLGFESIYKIPFADALDLFRGRKVYLEDGFAYVPLKDIVAIILNEFRAKLSKALALTARSLPAVQSDERLQPLLNHLSHSYTGQDYSTQGNVGKISLDQIDLLSTKSFPPCMRQLHKALRENDHLRHGGRMQYGLFLKGIGLTLEQALQFWKQEFIKGKMDPDKFDKGYSYNIRHSFGKEGKRTDYTPFSCLKIILSNPPSQGDYHGCPFRHSDPELLKQKLQSYKISPGGISQILDLVKGTHYQVACQKYFEMIHNVDDCGFSLNHPNQFFCESQRILNGGKDIKKEPIQPETPQPKPSVQKTKDASSALASLNSSLEMDMEGLEDYFSEDS [H299D] was tested. Which “effect of a mutation on the interaction” value did it give?
**A.** decreasing interaction

**Q.** How did the “effect of a mutation on the interaction” value turn out when MEFSGRKWRKLRLAGDQRNASYPHCLQFYLQPPSENISLIEFENLAIDRVKLLKSVENLGVSYVKGTEQYQSKLESELRKLKFSYRENLEDEYEPRRRDHISHFILRLAYCQSEELRRWFIQQEMDLLRFRFSILPKDKIQDFLKDSQLQFEAISDEEKTLREQEIVASSPSLSGLKLGFESIYKIPFADALDLFRGRKVYLEDGFAYVPLKDIVAIILNEFRAKLSKALALTARSLPAVQSDERLQPLLNHLSHSYTGQDYSTQGNVGKISLDQIDLLSTKSFPPCMRQLHKALRENHHLEHGGRMQYGLFLKGIGLTLEQALQFWKQEFIKGKMDPDKFDKGYSYNIRHSFGKEGKRTDYTPFSCLKIILSNPPSQGDYHGCPFRHSDPELLKQKLQSYKISPGGISQILDLVKGTHYQVACQKYFEMIHNVDDCGFSLNHPNQFFCESQRILNGGKDIKKEPIQPETPQPKPSVQKTKDASSALASLNSSLEMDMEGLEDYFSEDS [R302E] was run?
**A.** decreasing interaction

Variants of: B1
Details: with rfa2_human RPA2, P15927
Remark: another data set of the same source

**Q.** With MEFSGRKWRKLRLAGDQRNASYPHCLQFYLQPPSENISLIEFENLAIDRVKLLKSVENLGVSYVKGTEQYQSKLESELRKLKFSYRENLEDEYEPRRRDHISHFILRLAYCQSEELRRWFIQQEMDLLRFRFSILPKDKIQDFLKDSQLQFEAISDEEKTLREQEIVASSPSLSGLKLGFESIYKIPFADALDLFRGRKVYLEDGFAYVPLKDIVAIILNEFRAKLSKALALTARSLPAVQSDERLQPLLNHLSHSYTGQDYSTQGNVGKISLDQIDLLSTKSFPPCMRQLHKALRENHHLEHGGRMQYGLFLKGIGLTLEQALQFWKQEFIKGKMDPDKFDKGYSYNIRHSFGKEGKRTDYTPFSCLKIILSNPPSQGDYHGCPFRHSDPELLKQKLQSYKISPGGISQILDLVKGTHYQVACQKYFEMIHNVDDCGFSLNHPNQFFCESQRILNGGKDIKKEPIQPETPQPKPSVQKTKDASSALASLNSSLEMDMEGLEDYFSEDS [R302E] as the variant, how does the “effect of a mutation on the interaction” value read?
**A.** disrupting interaction
